Test results taken from IntAct's records for PubMed 23455607.

Key:
[1] = target: lamp2_human LAMP2 (UniProt P13473)
[2] = target: lamp2_rat Lamp2 (UniProt P17046)
[3] = target: lamp2_human LAMP2 (UniProt P13473); remark: listed apart in the source

lamp2_human LAMP2, sequence (P13473 whole entry): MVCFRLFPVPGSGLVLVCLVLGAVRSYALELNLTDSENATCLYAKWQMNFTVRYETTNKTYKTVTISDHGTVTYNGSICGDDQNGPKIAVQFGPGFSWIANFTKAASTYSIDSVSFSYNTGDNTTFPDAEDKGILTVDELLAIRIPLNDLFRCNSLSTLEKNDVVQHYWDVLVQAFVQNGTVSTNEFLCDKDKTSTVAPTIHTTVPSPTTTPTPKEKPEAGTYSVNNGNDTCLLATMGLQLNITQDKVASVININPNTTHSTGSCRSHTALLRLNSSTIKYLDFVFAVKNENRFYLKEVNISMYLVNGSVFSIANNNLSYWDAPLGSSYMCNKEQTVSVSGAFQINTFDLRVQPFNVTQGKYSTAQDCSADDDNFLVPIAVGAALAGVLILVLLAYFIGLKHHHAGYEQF
lamp2_rat Lamp2, sequence (P17046 whole entry): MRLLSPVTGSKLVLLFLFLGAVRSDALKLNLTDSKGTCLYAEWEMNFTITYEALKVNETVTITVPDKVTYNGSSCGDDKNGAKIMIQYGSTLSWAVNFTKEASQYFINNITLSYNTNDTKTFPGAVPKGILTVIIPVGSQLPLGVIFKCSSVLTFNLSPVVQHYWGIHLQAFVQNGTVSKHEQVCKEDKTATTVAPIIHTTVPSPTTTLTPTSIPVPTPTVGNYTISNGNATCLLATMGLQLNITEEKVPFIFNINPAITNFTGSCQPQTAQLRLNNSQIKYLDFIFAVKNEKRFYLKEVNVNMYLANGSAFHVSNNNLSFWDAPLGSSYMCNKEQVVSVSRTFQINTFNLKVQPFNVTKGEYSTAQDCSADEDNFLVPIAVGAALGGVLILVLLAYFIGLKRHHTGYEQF

effect of a mutation on the interaction [1]	effect of a mutation on the interaction [2]	effect of a mutation on the interaction [3]	Substance
increasing interaction	increasing interaction	–	Leucine-rich repeat serine/threonine-protein kinase 2 (Homo sapiens), Q5S007 G2019S
–	increasing interaction	increasing interaction	Leucine-rich repeat serine/threonine-protein kinase 2 (Homo sapiens), Q5S007 R1441C
